From US11434289B2, “Anti-GPR20 antibody and anti-GPR20 antibody-drug conjugate” (DAIICHI SANKYO COMPANY, LIMITED, priority 2017, dated 2022)
Where a chain is given by its changes, count along the chain named.

B1: 04-079: rat anti-human GPR20 antibody; heavy chain SEQ ID NO: 12, light chain SEQ ID NO: 17 (antibody, listed as Rattus norvegicus)
heavy: MEWNWVFLFLLSVTAVVHSQVQLQQSGAELAKPGSSVKISCKASGYTFTSYYITWIKQTTGQGLKYIGYINPGSGHTNYNEKFKGKATLTVDKSSSTAFMQLSSLTPDDSAVYYCARGAGGFLRIISKFDYWGQGVMVTVSSAQTTAPSVYPLAPGCGDTTSSTVTLGCLVKGYFPEPVTVTWNSGALSSDVHTFPAVLQSGLYTLTSSVTSSTWPSQTVTCNVAHPASSTKVDKKVERRNGGIGHKCPTCPTCHKCPVPELLGGPSVFIFPPKPKDILLISQNAKVTCVVVDVSEEEPDVQFSWFVNNVEVHTAQTQPREEQYNSTFRVVSALPIQHQDWMSGKEFKCKVNNKALPSPIEKTISKPKGLVRKPQVYVMGPPTEQLTEQTVSLTCLTSGFLPNDIGVEWTSNGHIEKNYKNTEPVMDSDGSFFMYSKLNVERSRWDSRAPFVCSVVHEGLHNHHVEKSISRPPGK
light: METDRLLLWVLLLWVPGSTGDTVLTQSPALAVSLGQRVTISCRASKSVSTYMHWYQQRSGQQPKLLIYSASNLESGVPSRFSGSGSGTDFTLTIDPVKADDITNYYCQQSNELPYTFGAGTKLELKRADAAPTVSIFPPSTEQLATGGASVVCLMNNFYPRDISVKWKIDGTERRDGVLDSVTDQDSKDSTYSMSSTLSLTKADYESHNLYTCEVVHKTSSSPVVKSFNRNEC
modifications: SIGNAL (1)..(19); SIGNAL (1)..(20)
B2: 04-046: rat anti-human GPR20 antibody; heavy chain SEQ ID NO: 2, light chain SEQ ID NO: 7 (antibody, listed as Rattus norvegicus)
heavy: B1 heavy with V16E, T54S, Y69F, V112I, S127T
light: B1 light with M52I, K98E, A99P, T103A, S110I
modifications: SIGNAL (1)..(19); SIGNAL (1)..(20)
B3: 04-126: rat anti-human GPR20 antibody; heavy chain SEQ ID NO: 22, light chain SEQ ID NO: 27 (antibody, listed as Rattus norvegicus)
heavy: B1 heavy with V16E, Q24R, T54I, I56M, T60A, K65Q, I67V, A119T
light: B1 light with N72T, K98E, T103A
modifications: SIGNAL (1)..(19); SIGNAL (1)..(20)

How the values were obtained:
[1] = molecular target: T1, human GPR20 with EC2 substituted with a mouse GPR20-derived sequence (Homo sapiens, UniProt Q99678, Y113F); assay: Cell-ELISA binding to human/mouse chimeric GPR20 (EC2 substituted); details: hGPR20_mECD2, FIG. 22
T1 construct: expressed in transfected cells; host or cells: 293α cells, transient
Method: (§1) The culture supernatant of the 293a cells transfected with the expression vector prepared in Example 1)-4-1 was removed, and the culture supernatant from each hybridoma was then added to the 293a cells transfected either with pcDNA3.1-hGPR20 or pcDNA3.1. The cells were left standing at 4° C. for 1 hour. The cells in the wells were washed once with PBS (+) supplemented with 5% FBS, and thereafter, Anti-Rat IgG-Peroxidase antibody produced in rabbit (Sigma-Aldrich Co. LLC) that had been 500-fold diluted with PBS (+) supplemented with 5% FBS was added to the wells. The cells were left standing at 4° C. for 1 hour. The cells in the wells were washed three times with PBS (+) supplemented with 5% FBS, and thereafter, OPD chromogenic solution (which had been prepared by dissolving o-phenylenediamine dihydrochloride (Wako Pure Chemical Industries, Ltd.) and H2O2 in an OPD solution (0.05 M trisodium citrate, 0.1 M disodium hydrogen phosphate 12-water; pH 4.5), so that the substances became 0.4 mg/ml and 0.6% (v/v), respectively) was added in an amount of 100 μL/well to the wells. A coloring reaction was carried out with occasional stirring. Thereafter, 1 M HCl was added to the plate (100 μL/well) to terminate the coloring reaction, followed by measurement of the absorbance at 490 nm using a plate reader (ENVISION: PerkinElmer, Inc.).
In the construction of expression vectors given below, using the full-length human GPR20 expression vector pcDNA3.1-hGPR20 produced in Example 1 as a template, each PCR reaction was carried out with the primer set given below. In this reaction, KOD FX DNA polymerase (Toyobo Co., Ltd.) was used, and the reaction was carried out at 15 cycles or 10 cycles each involving 98° C. for 10 seconds, 58° C. for 30 seconds, and 68° C. for 7 minutes. Thereafter, the obtained PCR product was treated with the restriction enzyme Dpnl. […]

mouse GPR20 = molecular target: T2, mouse GPR20 (Mus musculus, UniProt Q8BYC4); assay: Cell-ELISA binding to 293α cells expressing mouse GPR20; details: transiently transfected 293α cells, FIG. 22
T2 construct: using the full-length mouse GPR20 expression vector pcDNA-mGPR20 constructed in 4)-1 as a template; expressed in transfected cells; host or cells: 293α cells, transient
Method: as §1
According to a method known to a person skilled in the art, cDNA was artificially synthesized based on Ref Seq sequence NM_173365 of mouse GPR20, and then cloned into pcDNA-DEST40 expression vector (Invitrogen Corp.) to construct mouse GPR20 expression vector pcDNA-mGPR20.
The binding activity of the anti-GPR20 antibodies 04-046, 04-079, 04-126, 04-021, 13-024, and 13-048 against 293a cells into which different GPR20 expression vectors were transiently introduced was examined by the same method as the Cell-ELISA method shown in Example 1. […]

[2] = molecular target: T3, human GPR20 with EC1 substituted with a mouse GPR20-derived sequence (Mus musculus, UniProt Q8BYC4, A277V/A334G/A336G/DEL187-187/DEL317-317/F111Y/F318R/G190S/I170A/I299V/I338H/I343A/K166R/K271H/K319E/K330R/M323G/N268D/P337R/P351A/Q152R/R229H/R314H/S188T/S192P/S345P/T332S/T347A/T353A/T60A/T88I/V178A/V247I/V269M/V56A/W159C/Y312G); assay: Cell-ELISA binding to human/mouse chimeric GPR20 (EC1 substituted); details: hGPR20_mECD1, FIG. 22
T3 construct: expressed in transfected cells; host or cells: 293α cells, transient
Method: as §1
An expression vector for human GPR20 with EC1 substituted with a mouse GPR20-derived sequence was constructed using an In-Fusion (registered trademark) HD Cloning Kit (Clontech Laboratories, Inc.). Specifically, using the full-length human GPR20 expression vector pcDNA3.1-hGPR20 produced in Example 1 as a template, a PCR reaction was carried out with the primer set given below and KOD FX DNA polymerase (Toyobo Co., Ltd.) at 10 cycles each involving 98° C. for 10 seconds, 58° C. for 30 seconds, and 68° C. for 7 minutes to amplify a DNA fragment comprising the vector sequence. […]

human GPR20 = molecular target: T4, human GPR20 (Homo sapiens, UniProt Q99678); assay: Analysis of GPR20-binding site of anti-GPR20 antibodies by Cell-ELISA; details: EC1 = positions 1 to 48, EC2 = positions 108 to 125 of human GPR20
T4 construct: expressed in transfected cells; host or cells: 293T cells, transient, Lipofectamine 2000
Method: as §1
Binding sites of anti-human GPR20 antibodies were classified by measuring their binding activity against mouse GPR20, N-terminally FLAG-tagged human GPR20, and human/mouse chimeric GPR20 in which each of four extracellular regions (EC1, EC2, EC3, and EC4) of human GPR20 was substituted with a mouse GPR20-derived sequence, respectively, by Cell-ELISA. FIG. 21 is a diagram of the comparison between the amino acid sequences of human GPR20 (NP_005284) and mouse GPR20 (NP_775541). The four extracellular regions EC1 to EC4 are represented by positions in the amino acid sequence of human GPR20. EC1 corresponds to positions 1 to 48, EC2 corresponds to positions 108 to 125, EC3 corresponds to positions 190 to 196, and EC4 corresponds to positions 260 to 275. […]

T1 sequence (Q99678 whole entry Y113F): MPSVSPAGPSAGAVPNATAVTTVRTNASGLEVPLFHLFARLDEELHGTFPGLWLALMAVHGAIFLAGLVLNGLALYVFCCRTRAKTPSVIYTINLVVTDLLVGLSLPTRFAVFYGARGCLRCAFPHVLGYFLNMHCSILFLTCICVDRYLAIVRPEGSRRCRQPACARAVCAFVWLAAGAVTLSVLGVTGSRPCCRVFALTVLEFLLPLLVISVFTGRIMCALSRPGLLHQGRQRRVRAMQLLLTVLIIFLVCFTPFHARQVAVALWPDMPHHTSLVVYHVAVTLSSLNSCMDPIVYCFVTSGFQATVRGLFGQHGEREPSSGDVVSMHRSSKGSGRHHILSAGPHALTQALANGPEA
T4 sequence (Q99678 whole entry): as the sequence (Q99678 whole entry Y113F) above, with F113Y counted along it
T2 sequence (Q8BYC4 whole entry): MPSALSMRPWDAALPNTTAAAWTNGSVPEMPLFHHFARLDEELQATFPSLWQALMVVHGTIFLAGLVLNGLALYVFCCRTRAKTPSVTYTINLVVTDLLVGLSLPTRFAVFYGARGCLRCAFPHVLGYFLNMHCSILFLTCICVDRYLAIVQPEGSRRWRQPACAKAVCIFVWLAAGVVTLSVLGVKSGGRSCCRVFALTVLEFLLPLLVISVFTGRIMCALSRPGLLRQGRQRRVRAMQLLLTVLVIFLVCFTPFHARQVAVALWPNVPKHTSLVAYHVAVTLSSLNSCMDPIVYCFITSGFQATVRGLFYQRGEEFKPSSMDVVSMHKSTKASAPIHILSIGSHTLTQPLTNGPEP
T3 sequence (Q8BYC4 with tags, fused parts or gaps with the stated changes): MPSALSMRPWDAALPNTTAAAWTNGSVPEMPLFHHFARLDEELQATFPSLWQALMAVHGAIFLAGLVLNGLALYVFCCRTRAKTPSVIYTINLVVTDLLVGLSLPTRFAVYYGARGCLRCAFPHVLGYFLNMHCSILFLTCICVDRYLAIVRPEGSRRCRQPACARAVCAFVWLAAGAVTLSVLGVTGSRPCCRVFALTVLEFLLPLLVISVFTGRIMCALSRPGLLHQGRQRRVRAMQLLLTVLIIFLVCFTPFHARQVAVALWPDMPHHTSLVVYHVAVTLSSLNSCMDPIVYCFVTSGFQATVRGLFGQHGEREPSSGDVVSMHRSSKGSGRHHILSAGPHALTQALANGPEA

Molecule | binding activity after substituting EC2 of human GPR20 with that of mouse-derived GPR20 [1] | binding activity against mouse GPR20 (mouse GPR20) | binding activity after substituting EC1 of human GPR20 with that of mouse-derived GPR20 [2] | GPR20 extracellular region recognized (human GPR20)
B1 | lost binding activity | did not bind | lost binding activity | EC1, EC2
B2 | lost binding activity | did not bind | lost binding activity | EC1, EC2
B3 | lost binding activity | did not bind | lost binding activity | EC1, EC2
